This passage reports protein production results from a protein production outcome set (Wang et al. 2014).

This data set in a line: label from the status in PepcDB records.
In the case of “MDTSRLRPTSPLVRQAAACLDAGEADHADVLLDLHLSRHPEDSAGLILFGLTRVALGRPLEAEQPLRRALALDPIDDPFHARAVCALVDVLKAQGRMAEVSEVLERAGDVAPMNAVFPRMLGAHYRALGQVGAAITAARRAVAVESADGENWRGLAATLLGGAPGEALEALERAKTCGDDGADWWNIRGVALAALGEGEAAREAFKNAILRDGAAPMAWTNLGNLEIRAARSADALERAVEAYGQAIRRAPDSFEAHNNLAQALRDLGRRDEALVHAERAASLRPHDVTVLNTQANILRGLRRVDEAVAILERALACDGRSAETHSNLGLALLAAQDRQRAEEHFRKAAALAPDCVDIIVNLACFLIHINAGKEVLGVLEPALARFPGDVGLLATLGLHYFQENAYEDCATVFETVLAKKPDHVEARASLGVVRWSQGRLVESLALAQSIREDFPEDIRTLFLLGCVHSDLMENASALEVFDLAVEKGGERVPPFHYSNCCFSFHYVEAMEKDDLFARHRRWDALYGAGATELSDVTHHNTRDPERRLRIGYVSPDFRRHSVAYFFLPLVGAHDRAAVEVTCYSLSTLTDQMTDLIREGCDRWRDITTLPAEKAAERVREDEIDILVDLSGHTANNGLSIFALKPAPVQVTYLGYPNTTGLSAIDYRLTDGFADPLGVDEDPASETLWRLPRSFLLFDEVPGLPDPAPPPVLSRGTITFGSFNNMAKVNRGCVAVWKRILDAVPGSRLLLKAKGFRDPATAKVLIERLIDWGVDPEQVSYAPYAKNLMEHVAVYAEVDIALDTFPYNGTTTTFEALHMGVPVIGLRGHRHSGRVGASILGNLGLADRLLGEDVDDMVAKAVALAGDLEGLMRMRAGLRERLRASPLQDGPGFVADLEGAYRAMWRRWCAGPPTFHRQPKNGMWAVEEMEDAIEPVLG”, the protein production result is “failed”.

For “MDTTKTIAALFDFDGVIMDTETQYTVFWDEQGRKYLNEEDFGRRIKGQTLTQIYEKYFSDLPEAQQEITAGLNIYEKSMSYEYIPGVEAFIADLRKHGAKIAVVTSSNEEKMQNVYNAHPEFKGMVDRILTGEMFARSKPAPDCFLLGMEIFGATPENSYVFEDSFHGLQAGMTSGATVIGLATTNTREAITGKAHYIIDDFSEMTFEHLLALHR”, the protein production result is given as “failed”.

With “MDVDTAFLNSTMDEPIYVKQPPGFVNERNPDYVWELYGGMYGLKQAPLLWNEHINNTLKKIGFCRHEGEHGLYFRSTSDGPIYIAVYVDDLLVAAPSPKIYDRVKQELTKLYSMKDLGKVDKFLGLNIHQSSNGDITLSLQDYIAKAASESEINTFKLTQTPLCNSKPLFETTSPHLKDITPYQSIVGQLLFCANTGRPDISYPVSLLSRFLREPRAIHLESARRVLRYLYTTRSMCLKYRSGSQLALTVYCDASHGAIHDLPHSTGGYVTLLAGAPVTWSSKKLKGVIPVPSTEAEYITASETVMEI”, the protein production result is “failed”.

“MDVEAWLDERVPLVETHHHHHHENLYFQSHMNHGANIFGVAFNTLLGKDEPQVFATAGSNRVTVYECPRQGGMQLLHCYADPDPDEVFYTCAWSYDLKTSSPLLAAAGYRGVIRVIDVEQNEAVGNYIGHGQAINELKFHPHKLQLLLSGSKDHAIRLWNIQSHVCIAILGGVEGHRDEVLSIDFNMRGDRIVSSGMDHSLKLWCLNTPEFHHKIELSNTFSQEKSTLPFPTVTKHFPDFSTRDIHRNYVDCVQWFGNFVLSKSCENAIVCWKPGQLHQSFEQVKPSDSSCTIIAEFEYDECEIWFVRFGFNPWQKVIALGNQQGKVYVWELDPSDPEGAHMTTLHNSRSVATVRQIAFSRDASVLVYVCDDATVWRWNRRQTTSI”: the protein production entry is recorded as “failed”.

With “MDVFSDRVLLTEESPIRKLVPFAEMAKKRGVRIHHLNIGQPDLKTPEVFFERIYENKPEVVYYSHSAGIWELREAFASYYKRRQRVDVKPENVLVTNGGSEAILFSFAVIANPGDEILVLEPFYANYNAFAKIAGVKLIPVTRRMEEGFAIPQNLESFINERTKGIVLSNPCNPTGVVYGKDEMRYLVEIAERHGLFLIVDEVYSEIVFRGEFASALSIESDKVVVIDSVSKKFSACGARVGCLITRNEELISHAMKLAQGRLAPPLLEQIGSVGLLNLDDSFFDFVRETYRERVETVLKKLEEHGLKRFTKPSGAFYITAELPVEDAEEFARWMLTDFNMDGETTMVAPLRGFYLTPGLGKKEIRIACVLEKDLLSRAIDVLMEGLKMFCSSRISC”, the protein production result was “not failed”.

As to “MDVLSLVGIILAFVAIVGGNFLEGGHAGALLNGPAALIVIGGTLAAALLQTPVNVLKRGLGMLGWVFFPPREDLSGGIDRIVSWSMTARKEGLLGLESIADAEPDPYARKGLQLLVDGAEPEVIRSILEVDLFTQESRDLQAAKVFESMGGYAPTIGIIGAVMGLIHVMGNLANPAQLGSGIAVAFVATIYGVGFANLLLLPIGNKLKTLVLRQSRYREMLLEGLLSIAEGENPRSIELKLQGFMD”, the protein production result is listed as “failed”.

“MDVLTDQDVQKFRDEGYLVLEGLLSPEECDALRRRMSEIIESMDVPEHCRTQFSTDHDEQLKTQGNADYFITSGDKIRFFFEKGVFDDKGEFVVPKEQSLNKIGHALHAYEPLFKRVTHSPKVQNICKKLELINPVILQSMYIFKQPGIGGEVTPHQDATFLYTQPLGRVMGVWVALEDAMQENGCLWFIPGSHNDGITRRMVRTPKGTFPLTDFIGREKDYDDKLFVPAPVKKGGAVLIHGEVVHRSAANTSDASRHVYTFHIMESENTVWSPENWLQATEELPFPSLYT”: the protein production result was “failed”.

For “MDVSFEFEHYQVRLIKSSDAVTIANYFMRNRHHLAPWEPKRSHAFFTPEGWKQRLLQLVELHKHNLAFYFVVVDKNEHKIIGTVSYSNITRFPFHAGHVGYSLDSEYQGKGIMRRAVNVTIDWMFKAQNLHRIMAAYIPRNEKSAKVLAALGFVKEGEAKKYLYINGAWEDHILTSKINDDWKP”, the protein production entry was “not failed”.

Consider “MDYLVKALAYDGKVRAYAARTTDMVNEGQRRHGTWPTASAALGRTMTASLMLGAMLKGDDKLTVKIEGGGPIGAIVADANAKGEVRAYVSNPQVHFDLNEQGKLDVRRAVGTNGTLSVVKDLGLREFFTGQVEIVSGELGDDFTYYLVSSEQVPSSVGVGVLVNPDNTILAAGGFIIQLMPGTDDETITKIEQRLSQVEPISKLIQKGLTPEEILEEVLGEKPEILETMPVRFHCPCSKERFETAILGLGKKEIQDMIEEDGQAEAVCHFCNEKYLFTKEELEGLRDQTTR”, for which the protein production result is “not failed”.

“MEANSGGGGGAEGGRAVTGGGGGGGGSDVELVSKTLQVEHKLFYFDLKENPRGRYLKISEKTSATRSTIIVPSSGISWFLDLFNYYVNSEEHELFSKELQLDSKVFYFDIGENRRGRFLKVSEASVSRNRSTIIVPAGSSPDEGWAAFRNILAEIHEASGLFVMPNQKPSDGQEHLVDDVGAGFIPGHGSQQPSSSEHNVDRTIDSPGSDRSSIILPLSGLKQFHEVIGHFVEITKDKIEVLILLEDGNFQSSNHLNLATSSRLPDRGVQ”: the protein production result is “failed”.

“MEATEKLREKPIKSLFISYLIPAVLGMVLMSVNIVIDAVMISRGVGANGLAGVNVAIPAFSIFFSISLWIGMGGATLYSIALGENKIERARSIFTQSMTVAVIIVGVLAAICLWRIEDLAYVFGANEVILPYALDYLHVLLTFGMIYVLENILSTFIRNDGNPNLAMAGLVVTAVLNIVFDYIFIFIFKWGVTGAASATILSAAIGFLVLLTHFFRKSSILKWTKFHFEWDTVKQIMIIGFPSFTAESTVAIVTIGFNIAFVQYAGEVGVASYAMVNSIHAMTLLLFFGVGAALQPIASFHYGANLAERLREGLQFAVKIAVVLGGVAIIVGLFFGKYIIGLFDVQSPELLELTLTGMSLFFIQYVFLGYNIVYGEYFQSVRQTTKSVLIIMSRGLLFIIPLLWIMPKLFGINGIWLVMPVAEVLTAIIVFTMNRMKHPVPLNMAGEKEAI”: the protein production entry is reported as “failed”.

Regarding “MEATEKLREKPIKSLFISYLIPAVLGMVLMSVNIVIDAVMISRGVGANGLAGVNVAIPAFSIFFSISLWIGMGGATLYSIALGENKRERARSIFTQSMTVAVVIVGILAAICLWRIEDLAYLFGANEVILPYALDYLHVLLTFGMIYVLENILSTFIRNDGNPNLAMAGLVVTAVLNIVFDYIFIFIFGWGVTGAASATILSAAIGFLVLLTHFFRKSSILKWTKFHFEWDTVKQIMVIGFPSFTAESTVAIVTIGFNIAFVQYAGEVGVASYAMVNSIHAMTLLLFFGVGAALQPIASFHYGANLSERLREGLKFAVKIAVVLGGIAIIVGLFFGKYIIGLFDVQSPELLELTLTGISLFFIQYVFLGYNIVYGEYFQSVRQTKKSVLIIMSRGLLFIIPLLWIMPKLFGINGIWLVMPVAEVMTAIIVFTMNRMKHPVPLNMAGEKEAI”, the protein production result was “not failed”.

With “MEATNKMKVEVWSDIMCPFCYIGKRNYEAGLKQFADSNNIEIIWKSFQLDPNIPQDTAVTENVYQYLAERKGMSYEQSVQMHDSVVATAKKAGLDYNFDKAVIANSFNAHRMIQLAKTKDLGDAAEERLFYAYFTEGKNVGNSYVLIELGKDIGLTEAEVQTALTDDTYAYKVRQDVEEAQHLGVRGVPFFVFDRKYAVSGAQPPQAFLETLEKSFSEWRKEHPASPFEVSEGPSCSVDGCD”, the protein production entry is reported as “not failed”.

With “MECDRNVEKMSQVILLFFIYSFIGWLWETVYCSLKAKKFVYRGFLVGPYCPIYGFGVLSVLYFVEPFENNLLVLYVGSAVLVTILEYVTSYGLEKLFHASWWDYHDVPFNLNGRVALPVSLFWGLGCVLIVKVIQPEIAKVVSFLQATFGNYLALCIVIVMGLDLIYTLLNMQGFKKLITEMGQTLETNQQEFKQRLNTKMEIATADWQKLKERTKKEHFQNRLNFQQRRFINNYPKLTLKNIKNSKEVRHLLEDLKKKGQ”, the protein production entry is “failed”.

For “MEDAAEQERGFHVITIRKQIVTAALPLQDHWLPLSNLDLLLPPVQISVCFCYKKPRHFLSVAETLKASLAEALVSYYAFAGELVKNSSGEPEILCNNRGVDFLEAVADVELRELNLHDPDESIAKLVPKKKHGVIAIQVTQLKCGSIVVGCTFDHRIADAFSMNMFLVSWAEISRFNAPISSVPSFRRSILNPRRPLIIDSSIDKMYMPVTSLPLPQETTNDLDNILTSRIYYIKENALEDLQTLASGSSPKTGYGQRTKLESFSAFLWKLVAKHTGRDLVSNKNSKMGIVVDGRRRLMEKEDNTYFGNVLSIPFGGQSIDDLIDKPLSWVTNEVHRFLEEAVTKEHFLNLIDWVEIHRPIPAVSRIYSTGTDDGPAFVVSSGRSFPVNKVDFGWGLPVFGSYHFPWEGSSGYVMPMPSPVDDGNGDWVVYLHLTKGQLKFIEEEASHVLKPIDNYYLKINTIN”, the protein production entry is “failed”.
